Data taken from the supplement of paper PMC10724198.
± gives the standard deviation of the averaged measurements.

Columns and labels:
Saccharomyces cerevisiae [1] = test: protein stability index of tFT-peptide fusion (C-terminal peptide) (PSI (0-1 scale)); higher = more stable (slower turnover); settings: genetic background: wild type; temperature: 30 C
Saccharomyces cerevisiae [2] = test: as above
Procedure: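 MPS profiling in S. cerevisiae of the tFT-X12 degron library: putative degron peptides plus stable controls, 12 aa, fused to the C-terminus of a sfGFP-mCherry timer. Cells are FACS-sorted into 8 mCherry/sfGFP bins and deep-sequenced. PSI runs from 0 (unstable) to 1 (stable). Backgrounds are wild type, das1Δ and doa10Δ at 30 °C, and wild type, das1Δ, cdc34-1 and cdc53-1 at 37 °C; 2-3 technical replicates each.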

[3] = genetic background: cdc34-1, temperature: 37 C
[4] = genetic background: cdc53-1, temperature: 37 C
[5] = genetic background: das1 deletion, temperature: 30 C
[6] = genetic background: das1 deletion, temperature: 37 C
[7] = genetic background: doa10 deletion, temperature: 30 C
[8] = genetic background: wild type, temperature: 30 C
[9] = genetic background: wild type, temperature: 37 C
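Note: PSI is a weighted mean of sequencing reads over stability bins, variants kept only with over 10 reads, mCherry proximal and sfGFP distal, peptide attached via GGGS linker.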

| Sequence | protein stability index (Saccharomyces cerevisiae [1]) | protein stability index (Saccharomyces cerevisiae [2]; [3]) | protein stability index (Saccharomyces cerevisiae [2]; [4]) | protein stability index (Saccharomyces cerevisiae [2]; [5]) | protein stability index (Saccharomyces cerevisiae [2]; [6]) | protein stability index (Saccharomyces cerevisiae [2]; [7]) | protein stability index (Saccharomyces cerevisiae [2]; [8]) | protein stability index (Saccharomyces cerevisiae [2]; [9]) |
| --- | --- | --- | --- | --- | --- | --- | --- | --- |
| IVCFCFFLMFSL | 0.378 ± 0.0077 | 0.319 ± 0.063 | 0.34 ± 0.011 | 0.321 ± 0.021 | 0.417 ± 0.014 | 0.4222 ± 0.0033 | 0.317 ± 0.017 | 0.3766 ± 0.0011 |
| IVVLCHVFLDLG | 0.126 ± 0.03 | 0.048 ± 0.01 | 0.128 ± 0.033 | 0.125 ± 0.048 | 0.222 ± 0.019 | 0.074 ± 0.026 | 0.0933 ± 0.021 | 0.2008 ± 0.00035 |
| IWCQVGAFLVVF | 0.307 ± 0.027 | 0.218 ± 0.0075 | 0.257 ± 0.0071 | 0.209 ± 0.024 | 0.352 ± 0.0047 | 0.18 ± 0.01 | 0.198 ± 0.02 | 0.337 ± 0.0084 |
| IYVLLDVNYHLP | 0.468 ± 0.042 | 0.509 ± 0.024 | 0.527 ± 0.0074 | 0.379 ± 0.024 | 0.543 ± 0.014 | 0.3542 ± 0.0026 | 0.361 ± 0.026 | 0.5681 ± 0.0038 |
| IYVSVMLLRYRF | 0.465 ± 0.043 | 0.41 ± 0.042 | 0.428 ± 0.018 | 0.342 ± 0.035 | 0.493 ± 0.0097 | 0.3455 ± 0.00077 | 0.331 ± 0.042 | 0.481 ± 0.03 |
| KCKIWFREVSMN | 0.32 ± 0.066 | 0.658 ± 0.018 | 0.7475 ± 0.007 | 0.647 ± 0.015 | 0.729 ± 0.06 | 0.1748 ± 0.0015 | 0.216 ± 0.019 | 0.414 ± 0.027 |
| KGSFDLPTFSLF | 0.504 ± 0.095 | 0.726 ± 0.026 | 0.776 ± 0.018 | 0.644 ± 0.026 | 0.769 ± 0.011 | 0.613 ± 0.015 | 0.64 ± 0.031 | 0.7445 ± 0.0073 |
| KICAVRVIMDWC | 0.4769 ± 0.0044 | 0.459 ± 0.059 | 0.542 ± 0.012 | 0.383 ± 0.044 | 0.566 ± 0.017 | 0.351 ± 0.0053 | 0.379 ± 0.018 | 0.564 ± 0.014 |
| KIKVFHEMVLMC | 0.18 ± 0.0043 | 0.37 ± 0.059 | 0.587 ± 0.0097 | 0.446 ± 0.031 | 0.628 ± 0.017 | 0.114 ± 0.0016 | 0.139 ± 0.013 | 0.135 ± 0.043 |
| KKNKIYKERKNI | 0.434 ± 0.046 | 0.702 ± 0.17 |  | 0.6248 ± 0.0028 | 0.7245 ± 0.0029 | 0.203 ± 0.02 | 0.289 ± 0.13 | 0.462 ± 0.064 |
| KKNTQKKIKLSC | 0.358 ± 0.011 | 0.629 ± 0.0068 | 0.733 ± 0.023 | 0.627 ± 0.035 | 0.728 ± 0.045 | 0.15 ± 0.032 | 0.171 ± 0.011 | 0.281 ± 0.021 |
| KKRYSEIFKKNG | 0.408 ± 0.05 | 0.694 ± 0.057 | 0.728 ± 0.025 | 0.637 ± 0.016 | 0.769 ± 0.037 | 0.211 ± 0.033 | 0.254 ± 0.023 | 0.56 ± 0.039 |
| KLLLTCTFLVFP | 0.435 ± 0.0062 | 0.448 ± 0.022 | 0.545 ± 0.024 | 0.37 ± 0.032 | 0.555 ± 0.011 | 0.3361 ± 0.003 | 0.369 ± 0.02 | 0.523 ± 0.018 |
| KNKRQKNTIRKQ | 0.463 ± 0.016 | 0.669 ± 0.017 | 0.682 ± 0.056 | 0.654 ± 0.034 | 0.757 ± 0.089 | 0.2745 ± 0.00035 | 0.346 ± 0.025 | 0.573 ± 0.0086 |
| KQNKKHKKLKSN | 0.182 ± 0.091 | 0.543 ± 0.051 | 0.718 ± 0.051 | 0.66 ± 0.026 | 0.694 ± 0.021 | 0.111 ± 0.0086 | 0.0929 ± 0.018 | 0.182 ± 0.036 |
| KRLRDFLVIMCS | 0.196 ± 0.014 | 0.198 ± 0.024 | 0.2289 ± 0.0013 | 0.24 ± 0.03 | 0.358 ± 0.0079 | 0.112 ± 0.0067 | 0.118 ± 0.019 | 0.098 ± 0.02 |
| KTLCFLCRTRNS | 0.52 ± 0.033 | 0.671 ± 0.025 | 0.73 ± 0.011 | 0.668 ± 0.027 | 0.76 ± 0.013 | 0.387 ± 0.014 | 0.433 ± 0.023 | 0.658 ± 0.017 |
| KVRVRTTCWRKL | 0.255 ± 0.019 | 0.617 ± 0.039 | 0.686 ± 0.038 | 0.625 ± 0.015 | 0.7074 ± 0.0013 | 0.134 ± 0.0059 | 0.155 ± 0.014 | 0.347 ± 0.0065 |
| KYHLAAQLLVLL | 0.459 ± 0.037 | 0.602 ± 0.022 | 0.649 ± 0.015 | 0.531 ± 0.022 | 0.6431 ± 0.0046 | 0.401 ± 0.011 | 0.408 ± 0.0063 | 0.556 ± 0.0067 |
| LAFAGRCGLYVC | 0.362 ± 0.053 | 0.57 ± 0.064 | 0.679 ± 0.016 | 0.583 ± 0.026 | 0.693 ± 0.0075 | 0.289 ± 0.0035 | 0.291 ± 0.021 | 0.452 ± 0.0079 |
